Earlier results as cited in paper PMC11815838.

Molecular target: Her2 (ErbB2) ectodomain (UniProt P04626)
Assay: SPR (surface plasmon resonance)
Conditions: not stated (pH 7.4 and pH 5.0 running conditions; buffers given only in ref 2)

Substance	KD (pH 5.0) [nM]	KD (pH 7.4) [nM]
bH1 Fab variant P2 (H-Y33H) H-Y33H	1200	120
bH1 Fab variant P4 (H-Y56H) H-Y56H		170
bH1 Fab variant P7 (L-R30aH) L-R30aH	17	5.7
bH1 Fab variant P8 (L-S30bH) L-S30bH	9.9	3.4

Other lines, results leading:

KD (pH 5.0) [nM]	KD (pH 7.4) [nM]	Substance
16	3.5	bH1 Fab variant P1 (H-N28H) H-N28H
98	310	bH1 Fab variant P5 (H-R58H) H-R58H
	10	bH1 Fab variant P6 (H-Y100aH) H-Y100aH
